Test results reported in article PMC9926122.

Biological target: T1, recombinant EB1 (HS-AFM and microtubule experiments) (human), Q15691
T1 chain: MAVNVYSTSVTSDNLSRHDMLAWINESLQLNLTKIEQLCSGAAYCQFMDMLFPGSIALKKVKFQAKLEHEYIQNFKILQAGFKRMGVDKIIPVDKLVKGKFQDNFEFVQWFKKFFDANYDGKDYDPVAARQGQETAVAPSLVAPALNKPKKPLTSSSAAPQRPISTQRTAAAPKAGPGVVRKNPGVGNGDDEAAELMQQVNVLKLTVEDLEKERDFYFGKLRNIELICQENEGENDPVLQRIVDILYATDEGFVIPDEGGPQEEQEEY
Assay: high-speed atomic force microscopy (HS-AFM); proteins (10-30 nM; 10 nM in the frames shown) in BRB80 buffer (80 mM Pipes, 1 mM EGTA, 1 mM MgCl2, pH 6.9) on mica, tapping mode, 150 ms per frame; EB1 alone, Ska1 alone and their mixture
Settings: remark: other sources report otherwise

- stoichiometry N: 2
B1: recombinant EB1 (HS-AFM and microtubule experiments), Q15691 1-268 (natural protein)
chain: MAVNVYSTSVTSDNLSRHDMLAWINESLQLNLTKIEQLCSGAAYCQFMDMLFPGSIALKKVKFQAKLEHEYIQNFKILQAGFKRMGVDKIIPVDKLVKGKFQDNFEFVQWFKKFFDANYDGKDYDPVAARQGQETAVAPSLVAPALNKPKKPLTSSSAAPQRPISTQRTAAAPKAGPGVVRKNPGVGNGDDEAAELMQQVNVLKLTVEDLEKERDFYFGKLRNIELICQENEGENDPVLQRIVDILYATDEGFVIPDEGGPQEEQEEY
